From patent US20090252748A1 (Biogen, published 2009)
Values belong to the binder of their own block, whether it stands above or below them.

Assays:
[1] = molecular target: T1, Sp35 fragment 417-498 human Fc (human, UniProt Q96FE5 423-504); assay: fragment binding
T1 construct: not shown: Fc, printed 'human Fc'
T1 sequence: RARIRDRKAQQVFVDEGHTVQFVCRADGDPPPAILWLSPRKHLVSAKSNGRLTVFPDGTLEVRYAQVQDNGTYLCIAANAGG

[2] = molecular target: T2, human Sp35 protein expressed on transfected cells (human, UniProt Q96FE5 40-620); assay: FACS direct binding, CHO cells stably transfected with human Sp35 (LINGO-1), mean fluorescence (MCF) against antibody concentration [panel Human]
T2 construct: also called huSp35; hLINGO-1
T2 sequence: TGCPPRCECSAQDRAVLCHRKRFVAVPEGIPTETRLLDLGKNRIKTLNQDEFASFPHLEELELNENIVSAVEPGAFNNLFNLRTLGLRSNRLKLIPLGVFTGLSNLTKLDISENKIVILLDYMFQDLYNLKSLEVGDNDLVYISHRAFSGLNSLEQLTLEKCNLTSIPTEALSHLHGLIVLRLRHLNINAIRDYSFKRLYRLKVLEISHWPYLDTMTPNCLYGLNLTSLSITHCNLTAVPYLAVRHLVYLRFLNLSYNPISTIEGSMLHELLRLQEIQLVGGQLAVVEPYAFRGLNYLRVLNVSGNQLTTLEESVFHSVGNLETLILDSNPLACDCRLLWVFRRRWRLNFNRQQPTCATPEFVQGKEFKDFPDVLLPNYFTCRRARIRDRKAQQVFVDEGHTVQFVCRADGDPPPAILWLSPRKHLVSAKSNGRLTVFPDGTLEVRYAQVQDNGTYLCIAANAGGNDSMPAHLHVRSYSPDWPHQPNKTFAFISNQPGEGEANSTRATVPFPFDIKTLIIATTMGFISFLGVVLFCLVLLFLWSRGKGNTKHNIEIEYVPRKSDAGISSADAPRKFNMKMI
Procedure: (§1) In similar experiments, CHO cells stably transfected with Sp35 were used in FACS analysis to further characterize the binding properties of 3B5.2 and 7P1D5.1G9. […] Specifically, the 3B5.2 and 7P1D5.1G9 antibodies were tested for their ability to bind CHO cells transfected with, and expressing, human or murine Sp35. […] Additionally, the 3B5.2 antibody bound more cells as measured by the mean fluorescence (MCF) than 7P1D5.1G9.

[3] = molecular target: T3, mouse Sp35 protein expressed on transfected cells (mouse, UniProt Q9D1T0 36-614); assay: FACS direct binding, CHO cells stably transfected with murine Sp35 (LINGO-1), mean fluorescence (MCF) against antibody concentration [panel Murine]
T3 construct: whole, on cells; also called mSp35; mLINGO-1
T3 sequence (looked up): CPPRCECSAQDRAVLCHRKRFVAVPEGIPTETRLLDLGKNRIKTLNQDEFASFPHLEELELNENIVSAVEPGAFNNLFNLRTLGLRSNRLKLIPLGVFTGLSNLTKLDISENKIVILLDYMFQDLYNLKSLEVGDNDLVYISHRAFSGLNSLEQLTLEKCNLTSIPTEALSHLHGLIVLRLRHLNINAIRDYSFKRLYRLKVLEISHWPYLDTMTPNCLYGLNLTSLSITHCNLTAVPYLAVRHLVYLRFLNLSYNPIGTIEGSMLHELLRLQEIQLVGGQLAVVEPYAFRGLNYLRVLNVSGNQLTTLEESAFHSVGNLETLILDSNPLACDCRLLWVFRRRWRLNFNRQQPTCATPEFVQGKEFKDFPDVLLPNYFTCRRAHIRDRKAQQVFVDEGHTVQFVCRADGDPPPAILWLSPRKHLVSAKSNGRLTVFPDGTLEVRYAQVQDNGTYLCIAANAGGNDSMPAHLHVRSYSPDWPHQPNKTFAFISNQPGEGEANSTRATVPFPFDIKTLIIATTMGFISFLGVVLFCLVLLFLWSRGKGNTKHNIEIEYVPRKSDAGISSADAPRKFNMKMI
Procedure: as §1

Ig region of Sp35 = molecular target: T4, Ig region of Sp35 (Homo sapiens (Human), UniProt Q96FE5 425-499); assay: ELISA
T4 sequence: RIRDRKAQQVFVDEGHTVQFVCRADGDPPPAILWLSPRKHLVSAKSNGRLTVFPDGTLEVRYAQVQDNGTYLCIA
Procedure: Ovalbumin and BSA were used as controls. […] The affinity of these latter antibodies for mouse and rat Sp35 was restored to the level seen using human Sp35 when amino acid 419 of the mouse or rat Sp35 is changed from histidine (H) to arginine (R). Arginine is the amino acid at position 419 in human Sp35. […] AP substrate was then developed by 10 mg/ml 4 NPP in 0.1 M Glycine, 1 mM MgCl₂, 1 mM ZnCl₂, pH 10.5, and read at O.D. 405.
In similar experiments, monoclonal antibodies 3B5.2 and 7P1D5.1G9, as well as the Fab fragment of the 7P1D5.1G9 antibody were tested in ELISA assays for their ability to bind human Sp35, the entire LRR region of Sp35, the Ig region of Sp35 and murine Sp35. […] The 3B5.2 and 7P1D5. 1G9 monoclonal antibodies also bound the LRR region of Sp35.

AP-Sp35 (418-498) = molecular target: T5, AP-Sp35 (418-498) (Homo sapiens (Human), UniProt Q96FE5 424-504); assay: fragment binding
T5 sequence: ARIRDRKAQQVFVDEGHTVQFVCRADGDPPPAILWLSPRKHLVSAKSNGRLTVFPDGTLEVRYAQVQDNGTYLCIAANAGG

binding result [1]: no binding
B1: D13 (full-length antibody with the Li13 variable region) (antibody, V domains shown)
VH: EVQLLESGGGLVQPGGSLRLSCAASGFTFSHYEMYWVRQAPGKGLEWVSRIVSSGGFTKYADSVKGRFTISRDNSKNTLYLQMNSLRAEDTAVYYCATEGDNDAFDIWGQGTTVTVSS
VL: DIQMTQSPATLSLSPGERATLSCRASQSVSSYLAWYQQKPGQAPRLLIYDASNRATGIPARFSGSGSGTDFTLTISSLEPEDFAVYYCQQRSNWPMYTFGQGTKLEIK
notes: also called 72-D03 (Dli13) Ab

EC50 (read off the curve) [2]: ~0.4 nM | EC50 (read off the curve) [3]: ~0.4 nM | binding result (Ig region of Sp35): no binding
B2: 3B5.2 monoclonal antibody (ATCC PTA-8106) (antibody, mouse IgG1, V domains shown)
VH: QVQLQQPGAELVRPGTSVKLSCRASGYTFTSYWMHWVKQRPGQGLEWIGVIDPSDSYTNYNQKFRGKATLTVDTSSSTAYMQLSSLTSEDSAVYYCARPYYGSHWFFDVWGTGTTVTVSS
VL: QIVLTQSPAIMSASPGEKVTMTCSASSRVSYVHWYQQKSGTSPKRWLYDTSNLASGVPARFGGNGSGTSYSLTISSMEAEDAATYYCQQWSTNPPTFGGGTKLEIK
modifications: N-linked glycosylation site in FR3 (appears glycosylated)
notes: murine IgG1/kappa; also called 2.P3B5.2

binding result (AP-Sp35 (418-498)): no binding
B3: D06 (full-length antibody with the Li06 variable region) (antibody, V domains shown)
VH: EVQLLESGGGLVQPGGSLRLSCAASGFTFSEYPMDWVRQAPGKGLEWVSSIYSSGGSTVYADSIKGRFTISRDNSKNTLYLQMNSLRAEDTAVYYCAREGDSDAFDIWGQGTMVTVSS
VL: DIQMTQSPSTLSASVGDRVTITCRASQSISSWLAWYQQKPGKAPNLLIYAASSLRTGVPSRFRGSGSGTDFTLTISSLQPEDFATYYCLQDYSYPLTFGQGTKLEIK
notes: also called 34-F02 (Dli06) Ab
